Experimental data from patent US20170096461A1 (IMMATICS BIOTECHNOLOGIES, published 2017).

Molecular target: T1, HLA-A*02:01 (peptide-receptive MHC class I monomer after UV-ligand exchange) (human)
T1 construct: Monomers made with a UV-sensitive peptide that is cleaved by UV and exchanged for the test peptide; captured on streptavidin plates; also called MHC molecules
Assay: UV-ligand exchange + anti-b2m ELISA; exchange yield grade: + >=10%, ++ >=20%, +++ >=50, ++++ >=75%
Text: Candidate peptides for T cell based therapies according to the present invention were further tested for their MHC binding capacity (affinity). The individual peptide-MHC complexes were produced by UV-ligand exchange, where a UV-sensitive peptide is cleaved upon UV-irradiation, and exchanged with the peptide of interest as analyzed. Only peptide candidates that can effectively bind and stabilize the peptide-receptive MHC molecules prevent dissociation of the MHC complexes. To determine the yield of the exchange reaction, an ELISA was performed based on the detection of the light chain (β2m) of stabilized MHC complexes. The assay was performed as generally described in Rodenko et al. (Rodenko et al., 2006).
96 well MAXISorp plates (NUNC) were coated over night with 2 ug/ml streptavidin in PBS at room temperature, washed 4× and blocked for 1 h at 37° C. in 2% BSA containing blocking buffer. Refolded HLA-A*02:01/MLA-001 monomers served as standards, covering the range of 15-500 ng/ml. Peptide-MHC monomers of the UV-exchange reaction were diluted 100 fold in blocking buffer. Samples were incubated for 1 h at 37° C., washed four times, incubated with 2 ug/ml HRP conjugated anti-β2m for 1 h at 37° C., washed again and detected with TMB solution that is stopped with […]. Absorption was measured at 450 nm. Candidate peptides that show a high exchange yield (preferably higher than 50%, most preferred higher than 75%) are generally preferred for a generation and production of antibodies or fragments thereof, and/or T cell receptors or fragments thereof, as they show sufficient avidity to the MHC molecules and prevent dissociation of the MHC complexes.

Row | peptide exchange yield [%] | Binder
1 | 50 to 75 | VLFHQLQEI [peptide VLFHQLQEI (SEQ ID NO: 64)]
2 | 20 to 50 | KLFDRSVDL [peptide KLFDRSVDL (SEQ ID NO: 69)]
3 | ≥ 75 | RIIDPEDLKALL [peptide RIIDPEDLKALL (SEQ ID NO: 78)]
4 | 50 to 75 | KVIDYVPGI [peptide KVIDYVPGI (SEQ ID NO: 86)]
5 | 50 to 75 | TLIQFTVKL [peptide TLIQFTVKL (SEQ ID NO: 104)]
6 | 50 to 75 | VMYDLITEL [peptide VMYDLITEL (SEQ ID NO: 65)]
7 | 50 to 75 | VMLPIGAVVMV [peptide VMLPIGAVVMV (SEQ ID NO: 62)]
8 | 50 to 75 | KMFENEFLL [peptide KMFENEFLL (SEQ ID NO: 84)]
9 | ≥ 75 | NLLKLIAEV [peptide NLLKLIAEV (SEQ ID NO: 96)]
10 | 50 to 75 | LLMSTENEL [peptide LLMSTENEL (SEQ ID NO: 63)]
11 | 50 to 75 | LLAEIGAVTLV [peptide LLAEIGAVTLV (SEQ ID NO: 81)]
12 | 50 to 75 | SLFSQMGSQYEL [peptide SLFSQMGSQYEL (SEQ ID NO: 56)]
13 | 50 to 75 | TLVDNISTMAL [peptide TLVDNISTMAL (SEQ ID NO: 90)]
14 | ≥ 75 | VLLSGLTEV [peptide VLLSGLTEV (SEQ ID NO: 59)]
15 | ≥ 75 | VLIGDVLVAV [peptide VLIGDVLVAV (SEQ ID NO: 57)]
16 | 50 to 75 | IQHDLIFSL [peptide IQHDLIFSL (SEQ ID NO: 89)]
17 | 50 to 75 | ILMDPSPEYA [peptide ILMDPSPEYA (SEQ ID NO: 80)]
18 | 50 to 75 | ALFPVAEDISL [peptide ALFPVAEDISL (SEQ ID NO: 94)]
19 | 50 to 75 | RLLEPAQVQQL [peptide RLLEPAQVQQL (SEQ ID NO: 79)]
20 | ≥ 75 | VLLNINGIDL [peptide VLLNINGIDL (SEQ ID NO: 58)]
21 | 50 to 75 | SLSSYTPDV [peptide SLSSYTPDV (SEQ ID NO: 73)]
22 | ≥ 75 | TLHRETFYL [peptide TLHRETFYL (SEQ ID NO: 88)]
23 | 50 to 75 | FAYDGKDYLTL [peptide FAYDGKDYLTL (SEQ ID NO: 85)]
24 | ≥ 75 | LLIADNPQL [peptide LLIADNPQL (SEQ ID NO: 55)]
25 | 50 to 75 | AMNSQILEV [peptide AMNSQILEV (SEQ ID NO: 101)]
26 | ≥ 75 | ALFARPDLLLL [peptide ALFARPDLLLL (SEQ ID NO: 102)]
27 | 50 to 75 | FLDSLSPSV [peptide FLDSLSPSV (SEQ ID NO: 74)]

Row | peptide exchange yield [%] | Binder
28 | 50 to 75 | ALVDHLNVGV [peptide ALVDHLNVGV (SEQ ID NO: 98)]
29 | 50 to 75 | MLYDIVPVV [peptide MLYDIVPVV (SEQ ID NO: 67)]
30 | 50 to 75 | KLQDGVHII [peptide KLQDGVHII (SEQ ID NO: 91)]
31 | 50 to 75 | ALSSVIKEL [peptide ALSSVIKEL (SEQ ID NO: 82)]
32 | 50 to 75 | ALLDGTVFEI [peptide ALLDGTVFEI (SEQ ID NO: 97)]
33 | ≥ 75 | VVSGATETL [peptide VVSGATETL (SEQ ID NO: 60)]
34 | 50 to 75 | AIIDGKIFCV [peptide AIIDGKIFCV (SEQ ID NO: 77)]
35 | 50 to 75 | GLLGDIAIHL [peptide GLLGDIAIHL (SEQ ID NO: 7)]
36 | 50 to 75 | KAIGSLKEV [peptide KAIGSLKEV (SEQ ID NO: 72)]
37 | 50 to 75 | YQAPYFLTV [peptide YQAPYFLTV (SEQ ID NO: 61)]
38 | 50 to 75 | YLNLISTSV [peptide YLNLISTSV (SEQ ID NO: 66)]
39 | 50 to 75 | FLFPVYPLI [peptide FLFPVYPLI (SEQ ID NO: 68)]
40 | 50 to 75 | YLQDYTDRV [peptide YLQDYTDRV (SEQ ID NO: 92)]
41 | 50 to 75 | ALRETVVEV [peptide ALRETVVEV (SEQ ID NO: 93)]
42 | 50 to 75 | KLFAIPILL [peptide KLFAIPILL (SEQ ID NO: 11)]
43 | 50 to 75 | KLLEIDIDGV [peptide KLLEIDIDGV (SEQ ID NO: 83)]
44 | ≥ 75 | LLQNNLPAV [peptide LLQNNLPAV (SEQ ID NO: 87)]
45 | ≥ 75 | SIMDYVVFV [peptide SIMDYVVFV (SEQ ID NO: 6)]
46 | ≥ 75 | QMLEAIKALEV [peptide QMLEAIKALEV (SEQ ID NO: 99)]
47 | 20 to 50 | TLLWKLVEV [peptide TLLWKLVEV (SEQ ID NO: 70)]
48 | 20 to 50 | AAAPGEALHTA [peptide AAAPGEALHTA (SEQ ID NO: 9)]
49 | 50 to 75 | FIFEQVQNV [peptide FIFEQVQNV (SEQ ID NO: 71)]
50 | 10 to 20 | VADPETRTV [peptide VADPETRTV (SEQ ID NO: 100)]
51 | 50 to 75 | SLDLHVPSL [peptide SLDLHVPSL (SEQ ID NO: 75)]
52 | ≥ 75 | SLLEYQMLV [peptide SLLEYQMLV (SEQ ID NO: 103)]
53 | ≥ 75 | ALYSKGILL [peptide ALYSKGILL (SEQ ID NO: 95)]
